The results in this text go back to patent US20210063414A1, “METHODS FOR PREVENTING AND/OR TREATING BONE LOSS CONDITIONS BY MODULATING IRISIN” (Dana-Farber Cancer Institute, Inc., priority 2018, published 2021).

The target in test [1] is T1, MLO-Y4 cell surface proteins (Mus musculus, UniProt P59242).
T1 construct: endogenous in cells; host or cells: MLO-Y4
T1 sequence (P59242 1-1191): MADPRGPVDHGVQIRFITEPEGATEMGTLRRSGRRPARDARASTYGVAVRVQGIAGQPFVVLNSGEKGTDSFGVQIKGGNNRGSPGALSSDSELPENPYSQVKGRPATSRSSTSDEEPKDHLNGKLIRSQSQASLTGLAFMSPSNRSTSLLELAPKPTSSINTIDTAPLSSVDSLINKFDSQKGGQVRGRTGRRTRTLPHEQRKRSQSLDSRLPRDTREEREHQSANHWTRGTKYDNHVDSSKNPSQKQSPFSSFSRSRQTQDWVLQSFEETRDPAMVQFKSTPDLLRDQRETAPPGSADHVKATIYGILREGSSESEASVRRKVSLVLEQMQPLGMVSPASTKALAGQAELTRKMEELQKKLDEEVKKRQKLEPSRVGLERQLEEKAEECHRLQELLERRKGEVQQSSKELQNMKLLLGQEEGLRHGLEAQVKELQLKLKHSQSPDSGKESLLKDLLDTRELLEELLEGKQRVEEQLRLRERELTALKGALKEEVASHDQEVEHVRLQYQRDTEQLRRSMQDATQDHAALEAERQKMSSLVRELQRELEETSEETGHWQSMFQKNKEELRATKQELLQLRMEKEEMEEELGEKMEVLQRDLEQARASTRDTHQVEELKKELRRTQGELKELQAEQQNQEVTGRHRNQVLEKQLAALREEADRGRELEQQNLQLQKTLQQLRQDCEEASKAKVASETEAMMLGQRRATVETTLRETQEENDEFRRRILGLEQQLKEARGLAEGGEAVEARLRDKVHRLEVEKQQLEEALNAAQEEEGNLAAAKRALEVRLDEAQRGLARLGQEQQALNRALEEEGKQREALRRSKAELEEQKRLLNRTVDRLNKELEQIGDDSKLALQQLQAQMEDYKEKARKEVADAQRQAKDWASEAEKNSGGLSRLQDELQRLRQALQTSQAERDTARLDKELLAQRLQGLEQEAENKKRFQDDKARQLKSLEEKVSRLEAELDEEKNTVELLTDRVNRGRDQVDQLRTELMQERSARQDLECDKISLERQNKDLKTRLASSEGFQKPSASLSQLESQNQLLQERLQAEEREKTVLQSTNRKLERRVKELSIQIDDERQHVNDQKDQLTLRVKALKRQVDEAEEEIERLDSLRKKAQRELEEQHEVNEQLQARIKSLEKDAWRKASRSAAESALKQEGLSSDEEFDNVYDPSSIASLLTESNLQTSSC
Briefly: Crosslinking/co-immunoprecipitation/mass spectrometry (TMT quantitative proteomics) to identify irisin receptors. The note with it: co-precipitated protein Cgn (CING_MOUSE). The test is classed as binding. Summed up:
(§1)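 Mouse MLO-Y4 cells were switched to serum-free FreeStyle medium for 4 h, chilled, then exposed to 10 nM His-tagged irisin (or adipsin as control) for 20 min. Cells were crosslinked with 1.5 mM DTSSP (30 min, ice), and bound proteins were pulled down on Ni-NTA and eluted with 250 mM imidazole. Eluates were separated by SDS-PAGE, trypsin-digested in gel, TMT 6-plex labelled and quantified by MS3-based LC-MS/MS on an Orbitrap Fusion Lumos.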

Test [2] has as its target T2, MLO-Y4 cell surface proteins (Mus musculus, UniProt Q3U1J4).
T2 construct: endogenous in cells; host or cells: MLO-Y4
The description is as above. The class given is binding. The conditions noted are these: co-precipitated protein Ddb1 (DDB1_MOUSE). The essentials:
as §1

T2 sequence (Q3U1J4 whole entry): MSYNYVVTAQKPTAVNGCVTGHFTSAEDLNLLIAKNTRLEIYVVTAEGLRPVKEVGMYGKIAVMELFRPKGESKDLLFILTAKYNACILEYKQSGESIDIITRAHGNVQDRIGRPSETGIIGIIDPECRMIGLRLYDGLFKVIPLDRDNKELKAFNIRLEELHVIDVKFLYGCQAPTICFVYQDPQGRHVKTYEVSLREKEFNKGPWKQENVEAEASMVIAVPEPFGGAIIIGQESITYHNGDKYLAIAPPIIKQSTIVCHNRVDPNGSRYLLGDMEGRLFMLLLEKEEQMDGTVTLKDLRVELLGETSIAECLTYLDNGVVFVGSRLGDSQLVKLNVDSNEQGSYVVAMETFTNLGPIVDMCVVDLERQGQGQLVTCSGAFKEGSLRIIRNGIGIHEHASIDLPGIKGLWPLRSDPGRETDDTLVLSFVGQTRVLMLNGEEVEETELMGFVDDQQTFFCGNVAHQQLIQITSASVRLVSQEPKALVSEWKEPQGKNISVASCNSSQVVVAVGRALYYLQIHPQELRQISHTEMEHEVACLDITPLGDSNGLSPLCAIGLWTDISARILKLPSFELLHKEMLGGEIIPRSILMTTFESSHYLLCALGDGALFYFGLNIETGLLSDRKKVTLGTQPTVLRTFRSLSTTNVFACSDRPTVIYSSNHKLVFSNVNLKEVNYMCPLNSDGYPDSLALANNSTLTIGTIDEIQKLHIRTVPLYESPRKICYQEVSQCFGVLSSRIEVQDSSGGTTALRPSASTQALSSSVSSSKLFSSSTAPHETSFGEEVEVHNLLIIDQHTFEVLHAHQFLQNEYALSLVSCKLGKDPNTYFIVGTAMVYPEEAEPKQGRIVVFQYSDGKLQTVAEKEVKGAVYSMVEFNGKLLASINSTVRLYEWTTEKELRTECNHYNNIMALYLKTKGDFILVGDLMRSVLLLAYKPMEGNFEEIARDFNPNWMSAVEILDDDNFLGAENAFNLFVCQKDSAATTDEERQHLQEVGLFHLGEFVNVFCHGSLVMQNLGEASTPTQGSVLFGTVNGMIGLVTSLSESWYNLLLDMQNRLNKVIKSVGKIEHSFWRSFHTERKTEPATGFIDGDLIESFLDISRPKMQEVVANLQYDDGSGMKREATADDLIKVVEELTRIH

On to adipsin, for which the TMT signal-to-noise ratio amounted to 200.289 in test [1] and 426.44 in test [2].
